Assay results as given in PMC3266934, “The Murine Coronavirus Hemagglutinin-esterase Receptor-binding Site: A Major Shift in Ligand Specificity through Modest Changes in Architecture” (PLoS Pathogens, 2012).
Positions count from the first letter of the chain named.

B1: MHV-S HE ectodomain (mouse hepatitis virus strain S hemagglutinin-esterase, residues 25-403), released from HE-Fc by thrombin cleavage (domain or fragment)
chain: FNEPLNIVSHLNDDWFLFGDSRSDCTYVENNGHPKLDWLDLDPKLCNSGRISAKSGNSLFRSFHFIDFYNYSGEGDQVIFYEGVNFSPSHGFKCLAYGDNKRWMGNKARFYARVYEKMAQYRSLSFVNVSYAYGGNAKPTSICKDKTLTLNNPTFISKESNYVDYYYESEANFTLQGCDEFIVPLCVFNGHSKGSSSDPANKYYTDSQSYYNMDTGVLYGFNSTLDVGNTVQNPGLDLTCRYLALTPGNYKAVSLEYLLSLPSKAICLRKPKSFMPVQVVDSRWNSTRQSDNMTAVACQLPYCFFRNTSADYSGGTHDVHHGDFHFRQLLSGLLYNVSCIAQQGAFVYNNVSSSWPAYGYGHCPTAANIGYMAPVCIYD
notes: also called free MHV-S HE; not shown: Fc (human IgG1), C-terminal, cleaved
B2: MHV-S HE^0 ectodomain (esterase-inactive, Ser45 replaced by Ala, residues 25-403), released from HE^0-Fc by thrombin cleavage (domain or fragment)
chain: B1 chain with S21A
notes: not shown: Fc (human IgG1), C-terminal, cleaved

Molecular target: the molecule itself
Experiment: crystal structure; crystals of the thrombin-released ectodomain, space group P2(1)2(1)2(1), two HE molecules in the asymmetric unit; free HE (2.1 Å) and HE^0 soaked with a sialic acid receptor analogue (2.5 Å); 0.2 M KH2PO4, 0.2 M sodium malonate, 15% PEG3350, 18°C

Protein	binding result
B1	binds
B2	binds
